From FireProtDB (doi:10.1046/j.1432-1327.1999.00918.x)
Where “and” joins values, the source holds several entries; their conditions need not be identical. Equal entries are not always repeated.

B1: Lysozyme C, P61626 (parent)
chain: MKALIVLGLVLLSVTVQGKVFERCELARTLKRLGMDGYRGISLANWMCLAKWESGYNTRATNYNAGDRSTDYGIFQINSRYWCNDGKTPGAVNACHLSCSALLQDNIADAVACAKRVVRDPQGIRAWVAWRNRCQNRDVRQYVQGCGV

Variants of: B1
Conditions: Homo sapiens, Thermal, DSC, glycine 0.05 M, reversible: yes, structure 1LZ1, whole UniProt chain shown

Variant | Tm (pH 2.5) [°C] | unfolding enthalpy (calorimetric) (pH 2.5) [kcal/mol] | unfolding enthalpy (van 't Hoff) (pH 2.5) [kcal/mol] | ddG of mutation (higher = less stable) (pH 2.7, 64.9 °C) [kcal/mol] | Tm (pH 2.7) | change of melting temperature, mutant - wild type (higher = more stable) (pH 2.7) [°C] | heat capacity change of unfolding (pH 2.7) [kcal/mol/K] | unfolding enthalpy (calorimetric) (pH 2.7) [kcal/mol] | Tm (pH 2.95) [°C] | unfolding enthalpy (calorimetric) (pH 2.95) [kcal/mol] | unfolding enthalpy (van 't Hoff) (pH 2.95) [kcal/mol] | Tm (pH 3.22) [°C] | unfolding enthalpy (calorimetric) (pH 3.22) [kcal/mol] | unfolding enthalpy (van 't Hoff) (pH 3.22) [kcal/mol] | Tm (pH 2.58) [°C] | unfolding enthalpy (calorimetric) (pH 2.58) [kcal/mol] | unfolding enthalpy (van 't Hoff) (pH 2.58) [kcal/mol] | Tm (pH 2.77) [°C] | unfolding enthalpy (calorimetric) (pH 2.77) [kcal/mol] | unfolding enthalpy (van 't Hoff) (pH 2.77) [kcal/mol]
K19M | 61.7 | 88.4 | 90.1 | 0.12 | 64.4 °C and 64.9 °C | -0.5 | 1.03 | 91.8 | 69.1 | 95.4 | 97.5 | 70.1 | 98.5 | 106 | – | – | – | – | – | –
K19A | – | – | – | – | 62.7 °C | -2.2 | 1.6 | 96.8 | – | – | – | – | – | – | 60.9 | 90.6 | 98.7 | 63.7 | 95.1 | 99.4
